Here are results for 2 substances from paper PMC10889842.

This assay has as its target StBIN2 (Brassinolide insensitive 2 of potato), fused to nLUC (Solanum tuberosum (potato)). The assay is described as follows: split reporter (BiFC, NanoBiT); luciferase complementation in infiltrated tobacco leaves; LUC enzyme activity detected with a dual luciferase reporter assay kit (Vazyme); three biological repeats. On the technique in general: A reporter such as luciferase makes a cellular process visible.

“StSnRK2.2, fused to cLUC (natural protein)” showed an LUC enzyme activity, fold over the negative control greater than 5 fold.

In the case of “StCCJ9 (a homolog of peroxidase AtPER12), fused to cLUC (enzyme)”, the LUC enzyme activity, fold over the negative control was 5 fold.
